According to publication PMC3220268:

Experiments:
actin filaments = actin filaments (UniProt P68135); assay: co-sedimentation; actin co-sedimentation (pelleting) of rArp2/3 complex with actin filaments, as described in ref. 46
[1] = target: gelsolin-capped actin filaments (UniProt P68135); assay: pointed end capping assay (elongation from gelsolin-capped actin filaments); gelsolin-capped actin filaments (100 nM), 4 µM actin with pyrene-labeled actin; slowing of pointed end elongation by rArp2/3 complex

Row | Substance | Kd (actin filaments) | fold decrease in affinity against WT [1]
1 | recombinant Arp2/3 complex with ARPC4 R105A and R106A mutations (from UniProt P61158 1-418; P61160 1-394; O15143 1-372; O15144 1-300; O15145 1-178; P59998 1-168; O15511 1-151) | 1500 nM | 
2 | recombinant Arp2/3 complex with Arp2 T237A, T238A, and Y202A mutations (from UniProt P61158 1-418; P61160 1-394; O15143 1-372; O15144 1-300; O15145 1-178; P59998 1-168; O15511 1-151) |  | 8 fold
